{
  "source": "paper PMC6220479",
  "key": {"[1]": {"target": "TIM-3 expressed on activated human T cells (human (endogenous in activated T cells)) (UniProt Q8TDQ0)", "sequence (Q8TDQ0 22-301)": "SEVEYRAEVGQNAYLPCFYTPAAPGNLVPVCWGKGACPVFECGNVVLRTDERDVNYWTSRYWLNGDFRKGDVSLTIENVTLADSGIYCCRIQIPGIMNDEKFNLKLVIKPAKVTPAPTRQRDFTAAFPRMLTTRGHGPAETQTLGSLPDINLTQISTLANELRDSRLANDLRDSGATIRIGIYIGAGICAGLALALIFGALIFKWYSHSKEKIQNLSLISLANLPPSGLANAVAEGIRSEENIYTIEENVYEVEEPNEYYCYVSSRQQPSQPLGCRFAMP"}, "[2]": {"target": "TIM-3 expressed on activated human T cells (human (endogenous in activated T cells)) (UniProt Q8TDQ0)", "experiment": "flow cytometry on cells; FACS on activated human T cells"}, "[3]": {"target": "TIM-3 expressed on activated human T cells (human (endogenous in activated T cells)) (UniProt Q8TDQ0)", "experiment": "Scatchard analysis; on activated human T cells"}},
  "data": [
    {"substance": "BMS-986258, fully human immunoglobulin (Ig)G1 anti-TIM-3 monoclonal antibody", "values": [
      {"measurement": "EC50 in a human tumor TIL assay (IFN-gamma; TIL co-cultured with irradiated CHO-OKT3 cells)", "setting": "[1]", "value": 1.2, "unit": "nM"},
      {"measurement": "EC50", "setting": "[2]", "value": 0.1, "unit": "nM"},
      {"measurement": "Kd", "setting": "[3]", "value": 0.16, "unit": "nM"}
    ]}
  ]
}
